Measurements reported in article PMC6427009 (Scientific Reports, 2019).

Target: Hemagglutinin of Influenza A/California/07/2009 (H1N1) (Influenza A/California/07/2009 (H1N1), UniProt C3W5X2, fully glycosylated (7 glycosylation sites))
Assay: HDX-MS
Conditions: both partners purified

B1: llama single-domain antibody SD38 (VHH)
VHH: EVQLVESGGGLVQPGGSLRLSCAVSISIFDIYAMDWYRQAPGKQRDLVATSFRDGSTNYADSVKGRFTISRDNAKNTLYLQMNSLKPEDTAVYLCHVSLYRDPLGVAGGMGVYWGKGALVTVSS
notes: also called Llama single domain SD38
- binding result: binds
